Assay results reported in IntAct's records for PubMed 26894577.

Biological target: 2aba_human PPP2R2A (UniProt P63151)
UniProt P63151, sequence (P63151 whole entry): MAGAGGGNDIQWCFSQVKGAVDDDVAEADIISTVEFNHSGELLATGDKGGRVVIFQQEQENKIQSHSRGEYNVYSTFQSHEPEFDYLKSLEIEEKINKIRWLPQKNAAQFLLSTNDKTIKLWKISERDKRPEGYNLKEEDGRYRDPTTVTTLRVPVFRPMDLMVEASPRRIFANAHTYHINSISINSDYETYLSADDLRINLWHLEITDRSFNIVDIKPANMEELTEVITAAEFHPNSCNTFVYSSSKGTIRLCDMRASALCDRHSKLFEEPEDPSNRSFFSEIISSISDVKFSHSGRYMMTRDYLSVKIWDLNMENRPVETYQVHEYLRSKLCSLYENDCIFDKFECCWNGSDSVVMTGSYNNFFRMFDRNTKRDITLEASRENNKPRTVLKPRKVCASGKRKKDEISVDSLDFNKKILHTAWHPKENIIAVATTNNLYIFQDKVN

## Leucine-rich repeat serine/threonine-protein kinase 2 (Homo sapiens), Q5S007 R1441C
  effect of a mutation on the interaction: with no effect
